From patent US20250011418A1 (ZIELBIO, published 2025)
Changes are numbered by the printed parent chain.

T1: Sec8-His (section 8 (Sec8), an antigenic region of CSP-1, tagged with a polyhistidine (His) tag)
T1 construct: also called Sec8-His antigen
T1 chain: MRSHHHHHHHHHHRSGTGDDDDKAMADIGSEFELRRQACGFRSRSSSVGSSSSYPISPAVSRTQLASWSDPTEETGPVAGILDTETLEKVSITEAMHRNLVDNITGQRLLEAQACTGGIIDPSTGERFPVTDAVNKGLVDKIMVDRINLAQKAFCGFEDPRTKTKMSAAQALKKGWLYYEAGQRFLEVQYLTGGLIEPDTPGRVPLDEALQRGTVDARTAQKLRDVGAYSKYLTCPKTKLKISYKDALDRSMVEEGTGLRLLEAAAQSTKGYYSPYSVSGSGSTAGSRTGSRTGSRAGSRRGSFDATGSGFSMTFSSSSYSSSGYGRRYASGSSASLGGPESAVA

B1: humanized anti-CSP-1 antibody, Antibody Number 2 (Table 1) (antibody, human IgG1, V domains shown)
VH: QIQLVQSGPELKKPGETVKISCKASGYTFTDYSMHWVKQAPGKGLKWMGWIQTETGEPTYADDFKGRFAFSLETSASTAYLQINNLKNEDTATYFCAPGGFAYWGQGTLVTVSA
VL: DIVMTQAAPSVPVTPGESVSISCRSSKSLLHSNGNTYLYWFLQRPGQSPQLLIYRMSNLASGVPDRFSGSGSGTAFTLRISRVEAEDVGVYYCMQHLEYPLTFGAGTKLELK
notes: also called Antibody 2
B2: humanized anti-CSP-1 antibody, Antibody Number 3 (Table 1) (antibody, human IgG1, V domains shown)
VH: B1 VH with Q52N
VL: B1 VL with N33S
notes: also called Antibody 3
B3: humanized anti-CSP-1 antibody, Antibody Number 4 (Table 1) (antibody, human IgG1, V domains shown)
VH: B1 VH with Q52N
VL: B1 VL with M56V
notes: also called Antibody 4
B4: humanized anti-CSP-1 antibody, Antibody Number 5 (Table 1) (antibody, human IgG1, V domains shown)
VH: B1 VH with Q52N
VL: B1 VL with M56L
notes: also called Antibody 5
B5: humanized anti-CSP-1 antibody, Antibody Number 6 (Table 1) (antibody, human IgG1, V domains shown)
VH: B1 VH with Q52N
VL: B1 VL with M56I
notes: also called Antibody 6
B6: humanized anti-CSP-1 antibody, Antibody Number 9 (Table 1) (antibody, human IgG1, V domains shown)
VH: B1 VH with Q52N
VL: B1 VL with A7S, E17Q, R44K, L59R, A75D, R79K, A105Q, L111I
notes: also called Antibody 9
B7: humanized anti-CSP-1 antibody, Antibody Number 10 (Table 1) (antibody, human IgG1, V domains shown)
VH: B1 VH with Q52N
VL: B1 VL with A7S, V11L, E17Q, R44K, L59R, A75D, R79K, A105Q, L111I
notes: also called Antibody 10
B8: humanized anti-CSP-1 antibody, Antibody Number 11 (Table 1) (antibody, human IgG1, V domains shown)
VH: QIQLVQSGPEVKKPGASVKISCKASGYTFTDYSMHWVKQAPGQGLKWMGWINTETGEPTYADDFKGRFTFTLDTSTSTAYLEISSLRSEDTATYFCAPGGFAYWGQGTLVTVSS
VL: B1 VL with A7S, E17Q, R44K, L59R, A75D, R79K, A105Q, L111I
notes: also called Antibody 11
B9: humanized anti-CSP-1 antibody, Antibody Number 7 (Table 1) (antibody, human IgG1, V domains shown)
VH: B8 VH
VL: B1 VL
notes: also called Antibody 7
B10: humanized anti-CSP-1 antibody, Antibody Number 12 (Table 1) (antibody, human IgG1, V domains shown)
VH: B8 VH
VL: B1 VL with A7S, V11L, E17Q, R44K, L59R, A75D, R79K, A105Q, L111I
notes: also called Antibody 12
B11: humanized anti-CSP-1 antibody, Antibody Number 13 (Table 1) (antibody, human IgG1, V domains shown)
VH: B8 VH with K38R, K46E, D62Q, D63K, K65Q, T93V
VL: B1 VL with A7S, E17Q, R44K, L59R, A75D, R79K, A105Q, L111I
notes: also called Antibody 13
B12: humanized anti-CSP-1 antibody, Antibody Number 14 (Table 1) (antibody, human IgG1, V domains shown)
VH: QIQLVQSGPGLKQPGGSVRISCAASGYTFTDYSMHWVKQAPGKGLKWMGWINTETGEPTYADDFKGRFTFSLDTSKSTAYLQINSLRAEDTATYFCAPGGFAYWGQGTLVTVSS
VL: B1 VL with A7S, E17Q, R44K, L59R, A75D, R79K, A105Q, L111I
notes: also called Antibody 14
B13: humanized anti-CSP-1 antibody, Antibody Number 15 (Table 1) (antibody, human IgG1, V domains shown)
VH: B12 VH
VL: B1 VL with A7S, V11L, E17Q, R44K, L59R, A75D, R79K, A105Q, L111I
notes: also called Antibody 15
B14: humanized anti-CSP-1 antibody, Antibody Number 16 (Table 1) (antibody, human IgG1, V domains shown)
VH: EVQLVESGGDLVKPGGSLKLSCAASGFTFSRYGMSWVRQTPDKRLEWVATISIGGTYTYYPDSMKGRFTISRDNAKNTLYLQMSSLKSEDTAMYYCARRGYGNYSYYGMDYWGQGTSVTVSS
VL: DIVMTQAAFSNPVTLGTSASISCRSSKSLLHSNGITYLYWYLQKPGQSPQLLIYQMSNLASGVPDRFSSSGSGTDFTLRISRVEAEDVGVYYCAQNLELPLTFGAGTKLELK
notes: also called Antibody 16
B15: humanized anti-CSP-1 antibody, Antibody Number 17 (Table 1) (antibody, human IgG1, V domains shown)
VH: B14 VH with N103S
VL: B14 VL
notes: also called Antibody 17
B16: humanized anti-CSP-1 antibody, Antibody Number 18 (Table 1) (antibody, human IgG1, V domains shown)
VH: B14 VH with N103Q
VL: B14 VL
notes: also called Antibody 18
B17: humanized anti-CSP-1 antibody, Antibody Number 19 (Table 1) (antibody, human IgG1, V domains shown)
VH: B14 VH with M109L
VL: B14 VL
notes: also called Antibody 19
B18: humanized anti-CSP-1 antibody, Antibody Number 20 (Table 1) (antibody, human IgG1, V domains shown)
VH: B14 VH with M109I
VL: B14 VL
notes: also called Antibody 20
B19: humanized anti-CSP-1 antibody, Antibody Number 21 (Table 1) (antibody, human IgG1, V domains shown)
VH: B14 VH with M109V
VL: B14 VL
notes: also called Antibody 21
B20: humanized anti-CSP-1 antibody, Antibody Number 22 (Table 1) (antibody, human IgG1, V domains shown)
VH: B14 VH
VL: B14 VL with N33S
notes: also called Antibody 22
B21: humanized anti-CSP-1 antibody, Antibody Number 23 (Table 1) (antibody, human IgG1, V domains shown)
VH: B14 VH
VL: B14 VL with N33V
notes: also called Antibody 23
B22: humanized anti-CSP-1 antibody, Antibody Number 24 (Table 1) (antibody, human IgG1, V domains shown)
VH: B14 VH
VL: B14 VL with N33D
notes: also called Antibody 24
B23: humanized anti-CSP-1 antibody, Antibody Number 25 (Table 1) (antibody, human IgG1, V domains shown)
VH: B14 VH
VL: B14 VL with N33Q
notes: also called Antibody 25
B24: humanized anti-CSP-1 antibody, Antibody Number 26 (Table 1) (antibody, human IgG1, V domains shown)
VH: B14 VH
VL: B14 VL with N33E
notes: also called Antibody 26
B25: humanized anti-CSP-1 antibody, Antibody Number 27 (Table 1) (antibody, human IgG1, V domains shown)
VH: B14 VH
VL: B14 VL with M56V
notes: also called Antibody 27
B26: humanized anti-CSP-1 antibody, Antibody Number 28 (Table 1) (antibody, human IgG1, V domains shown)
VH: B14 VH
VL: B14 VL with M56L
notes: also called Antibody 28
B27: humanized anti-CSP-1 antibody, Antibody Number 29 (Table 1) (antibody, human IgG1, V domains shown)
VH: B14 VH
VL: B14 VL with M56I
notes: also called Antibody 29
B28: humanized anti-CSP-1 antibody, Antibody Number 31 (Table 1) (antibody, human IgG1, V domains shown)
VH: B14 VH with D10G, K13Q, K19R, T40A, D42G, A75S, S84N, K87R, S88A, S117L
VL: B14 VL
notes: also called Antibody 31
B29: humanized anti-CSP-1 antibody, Antibody Number 32 (Table 1) (antibody, human IgG1, V domains shown)
VH: EVQLVESGGGLVQPGGSLRLSCAASGFTFSRYGMSWVRQAPGKGLEWVATISIGGTYTYYPDSMKGRFTISRDNSKNTLYLQMNSLRAEDTAVYYCARRGYGNYSYYGMDYWGQGTLVTVSS
VL: B14 VL
notes: also called Antibody 32
B30: humanized anti-CSP-1 antibody, Antibody Number 33 (Table 1) (antibody, human IgG1, V domains shown)
VH: B14 VH
VL: B14 VL with A7S, F9L, T17Q, L59R, R79K, A105Q, L111I
notes: also called Antibody 33

Molecular target: T1, Sec8-His (section 8 (Sec8), an …)
Assay: BLI (Octet), single shot: antibody on anti-human IgG tips, 24 nM Sec8-His
Procedure: After humanization, the antibodies were tested for their capability to bind to an antigenic region of CSP-1 called section 8 (Sec8). Antigen binding was assessed by single-shot Octet analysis. Antibodies were loaded onto anti-human IgG tips, and the loaded tips were dipped into wells containing the Sec8-His antigen. Scouting experiments were used to determine ideal conditions for loading (10 minute incubation in 1 μg/mL IgG) and antigen binding (5 minute incubation in 24 nM Sec8-His, followed by a 5 minute dissociation step in buffer). Two negative controls were included with each experiment. First, a tip was loaded with irrelevant IgG dipped into 24 nM Sec8-His to control for non-specific interactions between the tip and the antigen. Next, tips loaded with humanized 1D7 variants were dipped into 24 nM GST-His to control for off-target binding of the antibody (a significant risk if a given variant is destabilized and/or exposes significant hydrophobic surface). The data from the irrelevant IgG control were subtracted from the data obtained with the […]-loaded tips. The mean and standard deviation of the signal change values for the GST-His control wells were used to calculate a threshold for positive binding (mean+3 standard deviations of the GST-His signal). Variants that were below this threshold are considered to have no specific binding to Sec8.

Binder | binding result
B1 | binds
B2 | binds
B3 | binds
B4 | binds
B5 | binds
B6 | binds
B7 | binds
B8 | binds
B9 | binds
B10 | binds
B11 | binds
B12 | binds
B13 | binds
B14 | binds
B15 | binds
B16 | binds
B17 | binds
B18 | binds
B19 | binds
B20 | binds
B21 | binds
B22 | binds
B23 | binds
B24 | binds
B25 | binds
B26 | binds
B27 | binds
B28 | binds
B29 | binds
B30 | binds
